Test results: US20180002379

Columns and labels:
Assay in all cases: cell_activity
[1] = system: ZFN SBS#46705 (synthetic)
[2] = system: ZFN SBS#46700 (synthetic)
[3] = system: ZFN SBS#46698 (synthetic)
[4] = system: ZFN SBS#46697 (synthetic)
[5] = system: ZFN SBS#46696 (synthetic)
[6] = system: ZFN SBS#20505 (synthetic)
[7] = system: ZFN SBS#46693 (synthetic)
ZFN SBS#8266 (synthetic) = system: ZFN SBS#8266 (synthetic)
[8] = pair 46700:46705 at CCR2, GFP 0.05

Sequence “TGCAAAAGGCTGAAGAGCATGACTGACA (double strand) [CCR5 shifted right 6F]” has an activity ([1]; pair 46700:46705, K562, GFP 0.03) of 27.4 % indel.

“GGTCGTCCTCATCTTAAT (double strand) [CCR2 shifted left half-site]” gave an activity [2, 8] of 0.08 % indel and an activity ([3]; pair 46698:46705 at CCR2) of 0 % indel.

“AAACTGCAAAAA (double strand) [CCR2 right half-site]” showed an activity ([4]; pair 46693:46697 at CCR2, no SELEX evidence of binding the CCR2 adenine) of 0.07 % indel, an activity ([5]; pair 46693:46696 at CCR2, background level, no SELEX evidence of binding the CCR2 adenine) of 0.01 % indel and an activity ([6]; pair 8266:20505 at CCR2, K562) of 5.23 % indel.

For “AGGATGAGGATGACCAGCATGTTGTTGC (double strand) [CCR5 left target]”, the activity ([7]; pair 46693:46697, K562, GFP 0.01) was 10 % indel.

Sequence “CAAAAAGCTGAAGTGCTT (double strand) [CCR2 shifted right half-site]” has an activity [1, 8] of 0.08 % indel.

“TTATCAGGATGAGGATGACCAGCATGTT (double strand) [CCR5 shifted left 6F]” showed an activity ([2]; pair 46700:46705, K562) of 27.4 % indel.

With “ATAAACTGCAAAAGGCTGAAGAGCATGA (double strand) [CCR5 right target]” the activity ([4]; pair 46693:46697, K562) was 10 % indel and the activity ([5]; pair 46693:46696, K562, printed 417, 632 of 15162 reads) was 4.17 % indel.

For “TTATCAGGATGAGGATGACCAGCATGTT (double strand) [CCR5 shifted left 4F]”, the activity ([3]; pair 46698:46705, K562) was 23.8 % indel.

“GTCGTCCTCATC (double strand) [CCR2 left half-site]” was tested, and the activity ([7]; pair 46693:46697 at CCR2, p 0.0013) was 0.07 % indel and the activity (ZFN SBS#8266 (synthetic); pair 8266:20505 at CCR2, K562) was 5.23 % indel.

“GATGAGGATGAC (double strand) [CCR5 left half-site (8266)]” was tested, and the activity (ZFN SBS#8266 (synthetic); pair 8266:20505, K562) was 29.9 % indel.

For “AAACTGCAAAAG (double strand) [CCR5 right half-site (20505)]”, the activity ([6]; pair 8266:20505, K562) was 29.9 % indel.
